Data published in patent US20260284189A1, “TREATMENT OF NON-SMALL CELL LUNG CANCER” (ASTRAZENECA AB, priority 2023, published 2026).
Where “and” joins values, the source holds several entries; their conditions need not be identical. Equal values may be shown once.

Assay: AEGEAN phase III: adverse events in the safety analysis set (CTCAE v5.0)
Conditions: for COVID-19: number of patients with event / COVID-19: patients with event: grouped term; for Any immune-mediated event: number of patients / Any immune-mediated event: patients: immune-mediated AE
[1] = all-causality, safety analysis set N = 400
[2] = any cause, Any Grade, safety analysis set N = 400
[3] = any cause, Any Grade, safety analysis set N = 400, listed as durvalumab
[4] = any cause, Max. Grade 3 or 4, safety analysis set N = 400
[5] = immune-mediated AE (grouped term), Any Grade 3 or 4, safety analysis set N = 400
[6] = immune-mediated AE (grouped term), Any Grade, safety analysis set N = 400
[7] = Any Grade 3 or 4, safety analysis set N = 400
[8] = Any Grade, safety analysis set N = 400
[9] = overall study period, safety analysis set N = 400
[10] = overall study period, safety analysis set N = 400, listed as durvalumab
[11] = possibly related to study treatment, Any Grade, safety analysis set N = 400
[12] = possibly related to study treatment, Max. Grade 3 or 4, safety analysis set N = 400

Source text: Safety was monitored throughout the study and adverse events (AEs) were graded using the National Cancer Institute Common Toxicity Criteria for AEs version 5.0.

Durvalumab: antibody that selectively binds PD-L1 and blocks binding of PD-L1 to PD-1 and CD80; arm given with platinum-based chemotherapy before surgery
Adverse events leading to cancellation of surgery: number of patients [1]: 7 | Adverse events leading to cancellation of surgery: patients [1]: (1.8) % | Adverse events leading to discontinuation of durvalumab/placebo: number of patients [1]: 48 | Adverse events leading to discontinuation of durvalumab/placebo: patients [1]: (12.0) % | COVID-19: number of patients with event [2]: 44 | COVID-19: patients with event [2]: (11.0) % | Alopecia: number of patients with event [2]: 68 | Alopecia: patients with event [2]: (17.0) % | Anemia: number of patients with event [2]: 136 | Anemia: patients with event [2]: (34.0) % | Asthenia: number of patients with event [2]: 50 | Asthenia: patients with event [2]: (12.5) % | Constipation: number of patients with event [2]: 99 | Constipation: patients with event [2]: (24.8) % | Decreased appetite: number of patients with event [2]: 73 | Decreased appetite: patients with event [2]: (18.3) % | Diarrhea: number of patients with event [2]: 52 | Diarrhea: patients with event [2]: (13.0) % | Fatigue: number of patients with event [2]: 52 | Fatigue: patients with event [2]: (13.0) % | Insomnia: number of patients with event [2]: 41 | Insomnia: patients with event [2]: (10.3) % | Nausea: number of patients with event [2]: 101 | Nausea: patients with event [2]: (25.3) % | Neutropenia: number of patients with event [2]: 68 | Neutropenia: patients with event [2]: (17.0) % | Neutrophil count decreased: number of patients with event [2]: 64 | Neutrophil count decreased: patients with event [2]: (16.0) % | Procedural pain: number of patients with event [2]: 44 | Procedural pain: patients with event [2]: (11.0) % | Pruritis: number of patients with event [2]: 47 | Pruritis: patients with event [2]: (11.8) % | Rash: number of patients with event [2]: 56 | Rash: patients with event [2]: (14.0) % | Vomiting: number of patients with event [2]: 45 | Vomiting: patients with event [2]: (11.3) % | Pruritis: patients with event [3]: 11.8% | Rash: patients with event [3]: 14% | COVID-19: number of patients with event [4]: 1 | COVID-19: patients with event [4]: (0.3) % | Alopecia: number of patients with event [4]: 0 | Anemia: number of patients with event [4]: 26 | Anemia: patients with event [4]: (6.5) % | Asthenia: number of patients with event [4]: 0 | Constipation: number of patients with event [4]: 1 | Constipation: patients with event [4]: (0.3) % | Decreased appetite: number of patients with event [4]: 1 | Decreased appetite: patients with event [4]: (0.3) % | Diarrhea: number of patients with event [4]: 3 | Diarrhea: patients with event [4]: (0.8) % | Fatigue: number of patients with event [4]: 0 | Insomnia: number of patients with event [4]: 0 | Nausea: number of patients with event [4]: 1 | Nausea: patients with event [4]: (0.3) % | Neutropenia: number of patients with event [4]: 36 | Neutropenia: patients with event [4]: (9.0) % | Neutrophil count decreased: number of patients with event [4]: 39 | Neutrophil count decreased: patients with event [4]: (9.8) % | Procedural pain: number of patients with event [4]: 1 | Procedural pain: patients with event [4]: (0.3) % | Pruritis: number of patients with event [4]: 1 | Pruritis: patients with event [4]: (0.3) % | Rash: number of patients with event [4]: 2 | Rash: patients with event [4]: (0.5) % | Vomiting: number of patients with event [4]: 3 | Vomiting: patients with event [4]: (0.8) % | COVID-19 events of max. grade 5: number of patients (any cause, assessed as unrelated to study treatment, safety analysis set, listed as D): 5 | Decreased appetite with an outcome of death (max. grade 5): number of patients (any cause, safety analysis set, listed as D): 1 | Dermatitis/Rash: number of patients [5]: 2 | Dermatitis/Rash: patients [5]: (0.5) % | Diarrhea/Colitis: number of patients [5]: 0 | Hepatic events: number of patients [5]: 8 | Hepatic events: patients [5]: (2.0) % | Hyperthyroid events: number of patients [5]: 0 | Hypothyroid events: number of patients [5]: 0 | Pneumonitis: number of patients [5]: 5 | Pneumonitis: patients [5]: (1.2) % | Dermatitis/Rash: number of patients [6]: 22 | Dermatitis/Rash: patients [6]: (5.5) % | Diarrhea/Colitis: number of patients [6]: 3 | Diarrhea/Colitis: patients [6]: (0.7) % | Hepatic events: number of patients [6]: 13 | Hepatic events: patients [6]: (3.2) % | Hyperthyroid events: number of patients [6]: 7 | Hyperthyroid events: patients [6]: (1.7) % | Hypothyroid events: number of patients [6]: 37 | Hypothyroid events: patients [6]: (9.2) % | Pneumonitis: number of patients [6]: 15 | Pneumonitis: patients [6]: (3.7) % | Pneumonitis: patients (immune-mediated AE (grouped term), Any Grade, safety analysis set N = 400, listed as durvalumab): 3.7% | Any immune-mediated event: number of patients [7]: 17 | Any immune-mediated event: patients [7]: (4.2) % | Any immune-mediated event: patients (Any Grade 3 or 4, safety analysis set N = 400, listed as durvalumab): 4.2% | Any immune-mediated event: number of patients [8]: 95 | Any immune-mediated event: patients [8]: (23.7) % | Any immune-mediated event: patients (Any Grade, safety analysis set N = 400, listed as durvalumab): 23.7% and 23.5% | All-causality adverse events with outcome of death: number of patients [9]: 23 | All-causality adverse events with outcome of death: patients [9]: (5.8) % | All-causality adverse events, maximum grade 3 or 4: number of patients [9]: 169 | All-causality adverse events, maximum grade 3 or 4: patients [9]: (42.3) % | All-causality serious adverse events: number of patients [9]: 150 | All-causality serious adverse events: patients [9]: (37.5) % | Any-grade adverse events possibly related to durvalumab/placebo/chemotherapy: number of patients [9]: 346 | Any-grade adverse events possibly related to durvalumab/placebo/chemotherapy: patients [9]: (86.5) % | Any-grade all-causality adverse events: number of patients [9]: 386 | Any-grade all-causality adverse events: patients [9]: (96.5) % | Possibly related adverse events with outcome of death: number of patients [9]: 7 | Possibly related adverse events with outcome of death: patients [9]: (1.8) % | Possibly related adverse events, maximum grade 3 or 4: number of patients [9]: 129 | Possibly related adverse events, maximum grade 3 or 4: patients [9]: (32.3) % | All-causality adverse events, maximum grade 3 or 4: patients [10]: 42.3% | Any-grade adverse events possibly related to durvalumab/placebo/chemotherapy: patients [10]: 86.5% | Any-grade all-causality adverse events: patients [10]: 96.5% | Possibly related adverse events with outcome of death: patients [10]: 1.8% | Possibly related adverse events, maximum grade 3 or 4: patients [10]: 32.3% | Alanine aminotransferase increased: number of patients with event [11]: 30 | Alanine aminotransferase increased: patients with event [11]: (7.5) % | Alopecia: number of patients with event [11]: 66 | Alopecia: patients with event [11]: (16.5) % | Anemia: number of patients with event [11]: 104 | Anemia: patients with event [11]: (26.0) % | Arthralgia: number of patients with event [11]: 21 | Arthralgia: patients with event [11]: (5.3) % | Asthenia: number of patients with event [11]: 34 | Asthenia: patients with event [11]: (8.5) % | Constipation: number of patients with event [11]: 44 | Constipation: patients with event [11]: (11.0) % | Decreased appetite: number of patients with event [11]: 49 | Decreased appetite: patients with event [11]: (12.3) % | Diarrhea: number of patients with event [11]: 34 | Diarrhea: patients with event [11]: (8.5) % | Fatigue: number of patients with event [11]: 42 | Fatigue: patients with event [11]: (10.5) % | Hypothyroidism: number of patients with event [11]: 37 | Hypothyroidism: patients with event [11]: (9.3) % | Leukopenia: number of patients with event [11]: 33 | Leukopenia: patients with event [11]: (8.3) % | Nausea: number of patients with event [11]: 84 | Nausea: patients with event [11]: (21.0) % | Neutropenia: number of patients with event [11]: 60 | Neutropenia: patients with event [11]: (15.0) % | Neutrophil count decreased: number of patients with event [11]: 61 | Neutrophil count decreased: patients with event [11]: (15.3) % | Platelet count decreased: number of patients with event [11]: 29 | Platelet count decreased: patients with event [11]: (7.3) % | Pruritis: number of patients with event [11]: 33 | Pruritis: patients with event [11]: (8.3) % | Rash: number of patients with event [11]: 37 | Rash: patients with event [11]: (9.3) % | Thrombocytopenia: number of patients with event [11]: 24 | Thrombocytopenia: patients with event [11]: (6.0) % | Vomiting: number of patients with event [11]: 31 | Vomiting: patients with event [11]: (7.8) % | White blood cell count decreased: number of patients with event [11]: 25 | White blood cell count decreased: patients with event [11]: (6.3) % | Alanine aminotransferase increased: number of patients with event [12]: 2 | Alanine aminotransferase increased: patients with event [12]: (0.5) % | Alopecia: number of patients with event [12]: 0 | Anemia: number of patients with event [12]: 17 | Anemia: patients with event [12]: (4.3) % | Arthralgia: number of patients with event [12]: 1 | Arthralgia: patients with event [12]: (0.3) % | Asthenia: number of patients with event [12]: 0 | Constipation: number of patients with event [12]: 0 | Decreased appetite: number of patients with event [12]: 0 | Diarrhea: number of patients with event [12]: 3 | Diarrhea: patients with event [12]: (0.8) % | Fatigue: number of patients with event [12]: 0 | Hypothyroidism: number of patients with event [12]: 0 | Leukopenia: number of patients with event [12]: 9 | Leukopenia: patients with event [12]: (2.3) % | Nausea: number of patients with event [12]: 1 | Nausea: patients with event [12]: (0.3) % | Neutropenia: number of patients with event [12]: 36 | Neutropenia: patients with event [12]: (9.0) % | Neutrophil count decreased: number of patients with event [12]: 38 | Neutrophil count decreased: patients with event [12]: (9.5) % | Platelet count decreased: number of patients with event [12]: 7 | Platelet count decreased: patients with event [12]: (1.8) % | Pruritis: number of patients with event [12]: 1 | Pruritis: patients with event [12]: (0.3) % | Rash: number of patients with event [12]: 2 | Rash: patients with event [12]: (0.5) % | Thrombocytopenia: number of patients with event [12]: 6 | Thrombocytopenia: patients with event [12]: (1.5) % | Vomiting: number of patients with event [12]: 3 | Vomiting: patients with event [12]: (0.8) % | White blood cell count decreased: number of patients with event [12]: 8 | White blood cell count decreased: patients with event [12]: (2.0) %
